Experimental data reported in patent WO2019054460A1 (dated 2019).

B1: 25H4-4F9 antibody (antibody, V domains shown)
VH: EVQLQQSGPELVKPGASVKISCKASGYSFTGYFMNWVKQSQGKSLESIGRNNPYNGDSIYNQKFKGKATLTVDKSSNTAHMELRSLTSEDSAVYYCARLMIFDAYYAMDYWGQGTSVTVSS
VL: DIQMTQTTSSLSASLGDRVTISCRASQDIRNYLNWYQQKPDGTVKLLIYYTSRLHSGVPSRFSGSGSGTDYSLTISNLEQEDIATYFCQQDSKHPWTFGGGTKLEIK
B2: 85H7-2B11 antibody (antibody, V domains shown)
VH: EVQLQQSGPELVKPGASVKMSCKASGYSFSGYFMNWVKQSHGKSLEWIGRINPYNGDTFYNQKFKGKATLTVDKSSSTTHMELRSLTSEDSALYYCARLGIYDVYHYVMENWGQGTSVTVSS
VL: DIQMTQTTSSLSASLGDRVTISCRASQDIRNYLNWYQQKPDGTVKLLIYYTSRLHSGVPSRFSGSGSGTDYSLTISNLEQEDIATYFCQQDSKNPWTFGGGTKLEIK
B3: h85H7-2B11v2 (antibody, V domains shown)
VH: QVQLVQSGAEVKKPGASVKMSCKASGYSFSGYFMNWVKQAPGQGLEWIGRINPYNGDTFYNQKFKGRATLTVDTSTSTTYMELSSLRSEDTALYYCARLGIYDVYHYVMENWGQGTTVTVSS
VL: DIQMTQSTSSLSASLGDRVTITCRASQDIRNYLNWYQQKPGKTVKLLIYYTSRLHSGVPSRFSGSGSGTDYTLTISSLQQEDIATYFCQQDSKNPWTFGQGTKLEIK
B4: h25H4-4F9v1 (antibody, V domains shown)
VH: EVQLVQSGPEVVKPGATVKISCKASGYSFTGYFMNWVKQAQGKSLESIGRNNPYNGDSIYNQKFKGKATLTVDKSTNTAYMELSSLRSEDTAVYYCARLMIFDAYYAMDYWGQGTTVTVSS
VL: DIQMTQSTSSLSASLGDRVTITCRASQDIRNYLNWYQQKPGKTVKLLIYYTSRLHSGVPSRFSGSGSGTDYTLTISSLQQEDIATYFCQQDSKHPWTFGQGTKLEIK
B5: h25H4-4F9v2 (antibody, V domains shown)
VH: EVQLVQSGAEVKKPGATVKISCKASGYSFTGYFMNWVKQAPGKGLESIGRNNPYNGDSIYNQKFKGRATLTVDTSTDTAYMELSSLRSEDTAVYYCARLMIFDAYYAMDYWGQGTTVTVSS
VL: DIQMTQSTSSLSASLGDRVTITCRASQDIRNYLNWYQQKPGKTVKLLIYYTSRLHSGVPSRFSGSGSGTDYTLTISSLQQEDIATYFCQQDSKHPWTFGQGTKLEIK
B6: 33H4-1G3 antibody (antibody, V domains shown)
VH: EVQLQQSGPELVKPGASVKMSCKASGYSFSGYFMNWVKQSHGKSLEWIGRINPYNGDTLYNQKFKGKATLTVDKSSNTIYMELRSLTSEDSALYYCARLGIYDVYHYVMENWGQGTSVTVSS
VL: DIQMTQTTSSLSASLGDRVTISCRASQDIRNYLNWYQQKPDGTVKLLIYYTSRLHSGVPSRFSGSGSGTDYSLTISNLEQEDIATYFCQQDSKNPWTFGGGTKLEIK
B7: h85H7-2B11v1 (antibody, V domains shown)
VH: EVQLVQSGPEVVKPGASVKMSCKASGYSFSGYFMNWVKQAHGQSLEWIGRINPYNGDTFYNQKFKGKATLTVDKSTSTTYMELSSLRSEDTALYYCARLGIYDVYHYVMENWGQGTTVTVSS
VL: DIQMTQSTSSLSASLGDRVTITCRASQDIRNYLNWYQQKPGKTVKLLIYYTSRLHSGVPSRFSGSGSGTDYTLTISSLQQEDIATYFCQQDSKNPWTFGQGTKLEIK
B8: h25H4-4F9v3 (antibody, V domains shown)
VH: EVQLVQSGAEVKKPGATVKISCKASGYSFTGYFMNWVKQAPGKGLESIGRNNPYNGDSIYNQKFKGRATLTVDTSTDTAYMELSSLRSEDTAVYYCARLMIFDAYYAMDYWGQGTTVTVSS
VL: DIQMTQSPSSLSASVGDRVTITCRASQDIRNYLNWYQQKPGKAVKLLIYYTSRLHSGVPSRFSGSGSGTDYTLTISSLQPEDIATYFCQQDSKHPWTFGQGTKLEIK
B9: h25H4-4F9v4 (antibody, V domains shown)
VH: EVQLVQSGAEVKKPGATVKISCKVSGYSFTGYFMNWVQQAPGKGLESIGRNNPYNGDSIYNEKFQGRVTITADTSTDTAYMELSSLRSEDTAVYYCARLMIFDAYYAMDYWGQGTTVTVSS
VL: DIQMTQSPSSLSASVGDRVTITCRASQDIRNYLNWYQQKPGKAVKLLIYYTSRLHSGVPSRFSGSGSGTDYTLTISSLQPEDIATYFCQQDSKHPWTFGQGTKLEIK
B10: h25H4-4F9v6 (antibody, V domains shown)
VH: EVQLVQSGAEVKKPGATVKISCKVSGYTFTGYFMNWVQQAPGKGLESMGRNNPYNGDSIYAEKFQGRVTITADTSTDTAYMELSSLRSEDTAVYYCARLMIFDAYYAMDYWGQGTTVTVSS
VL: DIQMTQSPSSLSASVGDRVTITCQASQDIRNYLNWYQQKPGKAVKLLIYYTSRLHSGVPSRFSGSGSGTDFTFTISSLQPEDIATYYCQQDSKHPWTFGQGTKLEIK
B11: h25H4-4F9v8 (antibody, V domains shown)
VH: EVQLVQSGAEVKKPGATVKISCKVSGYTFTGYFMNWVQQAPGKGLEWMGRNNPYNGDSIYAEKFQGRVTITADTSTDTAYMELSSLRSEDTAVYYCARLMIFDAYYAMDYWGQGTTVTVSS
VL: DIQMTQSPSSLSASVGDRVTITCQASQDIRNYLNWYQQKPGKAPKLLIYYTSRLETGVPSRFSGSGSGTDFTFTISSLQPEDIATYYCQQDSKHPWTFGQGTKLEIK
B12: h85H7-2B11v3 (antibody, V domains shown)
VH: QVQLVQSGAEVKKPGASVKMSCKASGYSFSGYFMNWVKQAPGQGLEWIGRINPYNGDTFYNQKFKGRATLTVDTSTSTTYMELSSLRSEDTALYYCARLGIYDVYHYVMENWGQGTTVTVSS
VL: DIQMTQSPSSLSASVGDRVTITCRASQDIRNYLNWYQQKPGKAVKLLIYYTSRLHSGVPSRFSGSGSGTDYTLTISSLQPEDIATYFCQQDSKNPWTFGQGTKLEIK
B13: h25H4-4F9v5 (antibody, V domains shown)
VH: EVQLVQSGAEVKKPGATVKISCKVSGYSFTGYFMNWVQQAPGKGLESIGRNNPYNGDSIYNEKFQGRVTITADTSTDTAYMELSSLRSEDTAVYYCARLMIFDAYYAMDYWGQGTTVTVSS
VL: DIQMTQSPSSLSASVGDRVTITCQASQDIRNYLNWYQQKPGKAVKLLIYYTSRLHSGVPSRFSGSGSGTDFTFTISSLQPEDIATYYCQQDSKHPWTFGQGTKLEIK

Key:
[1] = molecular target: RAMP2 expressed on the cell surface of HUVEC (human umbilical vein endothelial cells) (human) (UniProt O60895); test: cell-based or functional assay
[2] = molecular target: T1, human RAMP2 co-expressed with human CRLR on CHO-K1 cells (hCR2-CHOK1) (human, UniProt O60895 43-175; Q16602 23-461); test: cell-based or functional assay
[3] = molecular target: T1, human RAMP2 co-expressed with human …; test: Cell ELISA on fixed hCR2-CHOK1 cells, 1/2 serial dilution from 67.5 nM, GraphPad Prism 7
[4] = molecular target: RAMP2 expressed on the cell surface of HUVEC (human umbilical vein endothelial cells) (human, UniProt O60895 43-175); test: cell-based or functional assay
[5] = molecular target: T1, human RAMP2 co-expressed with human …; test: Cell ELISA on fixed hCR2-CHOK1 cells, 1/10 serial dilution from 67 nM, anti-human IgG Fc-HRP, GraphPad Prism 7

T1 sequence (O60895 43-175, chain 1 of 2): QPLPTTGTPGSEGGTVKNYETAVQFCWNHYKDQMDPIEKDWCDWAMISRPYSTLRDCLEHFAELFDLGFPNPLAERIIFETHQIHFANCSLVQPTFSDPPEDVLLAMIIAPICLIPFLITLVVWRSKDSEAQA
T1 sequence (Q16602 23-461, chain 2 of 2): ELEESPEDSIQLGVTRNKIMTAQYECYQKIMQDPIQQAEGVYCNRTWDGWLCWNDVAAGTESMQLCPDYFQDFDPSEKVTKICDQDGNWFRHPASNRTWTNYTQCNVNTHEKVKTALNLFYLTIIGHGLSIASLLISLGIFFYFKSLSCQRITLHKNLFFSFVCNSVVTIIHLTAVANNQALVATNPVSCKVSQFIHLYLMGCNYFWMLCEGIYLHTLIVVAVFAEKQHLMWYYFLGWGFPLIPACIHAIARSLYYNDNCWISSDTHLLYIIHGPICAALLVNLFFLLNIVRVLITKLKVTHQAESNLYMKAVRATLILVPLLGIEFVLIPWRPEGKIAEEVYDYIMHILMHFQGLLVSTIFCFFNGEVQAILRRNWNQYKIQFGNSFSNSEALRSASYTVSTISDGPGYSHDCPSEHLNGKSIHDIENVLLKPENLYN
Chain of RAMP2 expressed on the cell surface of HUVEC (human umbilical vein endothelial cells) (human) (O60895 43-175): as the sequence (O60895 43-175, chain 1 of 2) above
Chain of RAMP2 expressed on the cell surface of HUVEC (human umbilical vein endothelial cells) (O60895 43-175): as the sequence (O60895 43-175, chain 1 of 2) above

Row | Binder | HUVEC proliferation upon AM addition, 10 nM antibody (OD450, % of no antibody) [1] [%] | IC50 values for inhibition of HUVEC proliferation [1] [nM] | IC50 values for cAMP inhibition [2] [nM] | EC50 [3] [nM] | HUVEC growth inhibition rate (IC50) [4] [nM] | EC50 [5] [nM]
1 | B1 | 30 | 1.2 | 0.15 | 0.4 | – | –
2 | B2 | 30 | 0.8 | 0.03 | 0.14 | – | –
3 | B3 | – | – | 0.11 | – | 9.5 | 0.24
4 | B4 | – | – | 0.17 | – | 16 | 0.73
5 | B5 | – | – | 0.14 | – | 10.9 | 1.05
6 | B6 | 30 | 1.6 | 0.045 | 0.3 | – | –
7 | B7 | – | – | 0.07 | – | 5.1 | 0.18
8 | B8 | – | – | 0.26 | – | – | 0.83
9 | B9 | – | – | 0.17 | – | – | 1.83
10 | B10 | – | – | 1.35 | – | – | 3.19
11 | B11 | – | – | 1.07 | – | – | 3.03
12 | B12 | – | – | 0.08 | – | 1.5 | 0.23
13 | B13 | – | – | 0.5 | – | – | 2.32
